Measured values as given in patent US20020045192A1, “Arf and HDM2 interaction domains and methods of use thereof” (St. Jude Children's Research Hospital, priority 2001, published 2002).
Where no end group is shown, it is not given here.

Biological target: T1, Hdm2 210-304 (Homo sapiens, UniProt Q00987)
T1 construct: poly-His (thrombin-cleavable, from pET28a) (cleaved yes); made in house; host or cells: E. coli BL21 (DE3)
Experiment: SPR binding of Arf library peptides to immobilized His-tagged Hdm2 210-304
Conditions: 15 amino acid library peptides, binding for 10 minutes
Protocol: Binding studies were performed using a Biacore 3000 surface plasmon resonance (SPR) instrument (Biacore, Inc.). A Tetra-His™ Antibody (Qiagen, Inc.; Cat. #34670) was covalently attached to a carboxymethylated gold surface (C-1 chip; Biacore, Inc.). The carboxymethyl groups on the surface were activated with N-ethyl-N′-(3-dimethylaminopropyl) carbodiimide (EDC) and N-hydroxysuccinimide (NHS) and the antibody was attached at pH 7.4 in 20 mM sodium phosphate buffer, 150 mM NaCl (PBS). Reactive sites remaining on the surface were blocked by reaction with ethanolamine. […] Binding was measured by flowing the non-His-tagged analyte through the reference and ligand-containing flow cells in sequence. […] Changes in the SPR response due to solvent differences and the injection process were monitored by injection of HBS-N buffer alone. […]
Two libraries of peptides 15 amino acids in length were synthesized based on the sequence of exon 1β of mouse p19^Arf and the entire sequence of human p14^Arf. […] The ability of these peptides to bind Hdm2 fragments was determined using the surface plasmon resonance (SPR) technique with a Biacore 3000 instrument. […] Relative binding affinity was judged on the basis of the maximal SPR signal detected after binding for 10 minutes.

T1 sequence (Q00987 210-304): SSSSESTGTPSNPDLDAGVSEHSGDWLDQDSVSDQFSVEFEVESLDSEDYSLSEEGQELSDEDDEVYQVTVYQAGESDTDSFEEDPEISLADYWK

| binding to Hdm2 210-304 (maximal SPR signal) | Substance |
| --- | --- |
| binds | human Arf residues 86-100: 15 amino acid human p14^Arf library peptide spanning residues 86-100, contains the NoLS RRPR (LRRPRHSHPTRARRC; not fully specified (N-terminus, C-terminus); UniProt Q8N726 86-100, looked up, fragment) |
| bind | mouse p19^Arf residues 31-45: 15 amino acid mouse p19^Arf library peptide spanning residues 31-45, contains the RRPR motif (RRPRTASCALAFVNM; UniProt Q64364 31-45, looked up, fragment) |
